Laboratory results reported in the supplement of paper PMC10567573.

B1: TRAF3IP2 (parent)
chain: APWNYHYHCPGSPDHQVPYGHDYP

Variants of: B1
Experiment: protein stability index of a GFP-peptide fusion (GPS, HEK-293T) (PSI 1-6); higher = more stable
Conditions: c terminus: a fixed tail appended
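Further: lentivirally expressed fusions sorted by FACS into six bins by GFP to DsRed ratio, PSI derived from sequencing read proportions per bin multiplied by bin number.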

Protein stability index: each site, then its substitutions
Y7: H 3.42, K 2.91, W 1.99, A 3.15, M 1.5, S 2.82, F 2.4, N 3.4, P 3.29, V 2.67, Q 3.83, R 3.09, E 3.6, D 3.79, T 2.85, G 3.43, I 2.52, C 2.49, L 2.6
A1: T 1.87, M 2.5, Y 2.37, N 2.32, P 2.71, S 2.18, R 2.1, V 1.71, Q 1.53
H15: S 2.22, A 2.1, C 1.97, L 1.95, D 2.56, Q 2.13, P 2.23, E 2.43, V 2.31, M 2.02, Y 2.14, F 1.65, T 1.91, K 2.65, W 1.46, N 2.48, G 2.73, I 2.61, R 2.1
H6: K 2.97, D 3.57, L 2.39, M 2.54, V 1.94, R 2.9, F 2.14, C 3.34, E 4.43, S 3.2, A 2.73, N 3.15, W 2.59, P 3.38, Y 2.02, Q 2.97, I 2.42, G 2.96, T 2.94
Y19: D 2.75, A 2.47, E 2.8, H 2.85, G 2.41, C 1.91, F 1.87
P13: S 2.14, K 1.84, Y 1.63, G 2.05, T 2.24, M 2.12, Q 2.5, W 1.67, L 2.16, C 1.94, R 2.33, D 2.4, H 1.79, E 3.05, N 1.83, A 3.02, I 1.87, F 2.78
H8: C 2.42, I 2.08, A 2.06, E 2.25, V 1.95, G 2.12, P 1.99, N 2.1, Y 1.84, D 2.9, L 2.2, M 1.69, K 1.73, F 2.22, Q 2.82, S 2.44, W 2.26, R 1.66, T 2.41
G11: M 3.15, I 1.63, C 2.02, H 2.11, Q 1.63, P 1.91, D 2.21, R 2.04, N 1.87, T 2.18, K 1.92, Y 1.37, A 2.55, L 2.31, V 2.08, F 2.73, W 2.18, S 2.12, E 2.06
V17: R 2.4, Q 2.61, H 2.71, F 1.73, W 2.08, M 1.88, Y 1.81, K 2.53, D 2.62, G 2.68, P 2.6, S 2.31, T 2.39, N 2.23, E 2.95, A 2.06, L 2.81, C 2.45, I 2.15
W3: K 3.05, R 3.72, A 3.6, L 3.03, T 4.03, G 3.43, M 3.08, C 4.01, F 2.22, S 3.95, Y 3.04, H 3.51, D 4.04, E 4.48, I 3.39, V 2.52, N 4.12, Q 3.54
S12: K 2.21, L 2.47, F 1.7, Y 2.21, M 1.96, Q 2.5, I 2.27, T 2.35, C 2.75, W 2, E 2.37, V 2.2, N 1.6, D 2.49, G 2.36, R 2.47, A 2.07, H 2.23
D14: I 2.08, E 2.72, N 2.11, Y 1.53, L 2.6, A 1.93, V 2.09, C 2.49, K 2, H 2.25, M 1.84, G 2.1, F 2.75, R 1.91, T 1.78, S 2.26, W 2.32, Q 2.46
Q16: D 2.49, F 2.19, Y 2.09, M 1.94, H 2.97, S 3.2, C 2.07, R 2.02, L 1.89, A 2.64, P 2, W 1.68, G 1.81, V 2.09, I 2.58, N 2.54, K 2.15, E 2.6, T 2.31
C9: T 1.69, F 1.93, W 1.78, K 2.66, S 2.52, V 2.7, E 2.55, H 2.28, D 2.59, I 1.85, M 2.73, L 1.98, R 2.52, G 2.05, N 2.17, P 1.9, Y 2.16, Q 2.16, A 2.08
N4: M 2.78, V 2.12, H 1.97, G 2, W 1.51, K 2.24, P 2.59, L 2.26, Y 2.54, F 2.63, Q 3.04, D 3.54, C 2.17, T 2.63, I 2.43, A 1.7, S 3.36, E 3.39
P10: T 1.86, V 2.09, M 2.02, Y 2.13, N 2.08, F 2.07, L 1.54, Q 2.04, A 1.69, E 2.27, W 1.46, K 2.4, D 2.31, H 1.96, G 1.71, R 1.29, S 2.08, C 1.5, I 1.66
Y5: H 2.63, W 2.91, K 3.14, R 3.04, F 2.19, C 3.43, L 3.3, E 4.08, Q 2.94, V 3.21, M 3, I 3.64, D 3.93, N 3.43, T 3.52, S 3.47, P 3.84, A 3.65, G 3.96
P2: M 2.07, T 2.21, Y 1.51, I 1.58, Q 2.35, G 1.59, W 1.27, K 2.04, F 1.95, C 2.15, E 3.07, V 2.45, A 2.66, S 2.1, R 2.28, N 3.37, D 3.38, H 2.26, L 1.76
P18: C 2.97, M 2.56, A 3.19, K 3.59, G 1.92, Y 2.16, R 2, N 2.5, L 2.21, I 1.93, H 2.17, T 2.37, V 2.05, E 2.54, S 1.67, W 1.71, Q 2.54, D 2.44, F 2.23
